The target in assay [1] is T1, protein A (UniProt P38507 37-327).
T1 construct: Immobilised on resin; also called rProtein A Sepharose Fast Flow column (GE Healthcare); HiTrap protein A HP column (GE Healthcare)
Put plainly: rProtein A Sepharose Fast Flow column, stepwise pH elution; fractions analysed by cation exchange chromatography.
Description: The CM samples were filtered through a filter with a pore size of 0.22 μm, and loaded onto an rProtein A Sepharose Fast Flow column (GE Healthcare) equilibrated with D-PBS. The volume of CM to be loaded onto the column was adjusted to 20 mg antibody/ml resin. Fractions eluted under each condition were collected, and the respective eluted fractions were analyzed by cation exchange chromatography to identify their components. To prepare controls, each CM was loaded onto rProtein G Sepharose Fast Flow resin (GE Healthcare). Samples purified by batchwise elution were used as controls. Since protein G binds to the Fab domain of an antibody, all antibody species (a bispecific antibody of interest in which two types of H chains are associated in a heteromeric manner (heteromeric antibody) and as an impurity monospecific homomeric antibodies in which single-type H chains are homomerically associated) in CM can be purified by using protein G, regardless of their protein A-binding affinity.

The target of assay [2] is T1, protein A. Put plainly: rProtein A Sepharose Fast Flow column, elution at pH 3.6; cation exchange analysis.
Description: (§1) The CM samples were filtered through a filter with a pore size of 0.22 μm, and loaded onto an rProtein A Sepharose Fast Flow column (GE Healthcare) equilibrated with D-PBS. […] The volume of CM to be loaded onto the column was adjusted to 20 mg antibody/ml resin. Respective fractions eluted under each condition were collected and analyzed by cation exchange chromatography to identify their components. […] Samples purified by batchwise elution were used as controls.
The target of assay [3] is T1, protein A. The assay can be described thus: rProtein A Sepharose Fast Flow column, elution at pH 3.6 and 2.7; cation exchange analysis.
Description: as §1
In assay [4] the target is T1, protein A. Put plainly: HiTrap protein A HP column, pH gradient elution.
Excerpt: CM samples were filtered through a filter with a pore size of 0.22 μm and loaded onto a HiTrap protein A HP column (GE Healthcare) equilibrated with D-PBS. The column was sequentially subjected to washes 1 and 2 and elution with a pH gradient using elution A and B as shown in Table 18.
In assay [5] the target is T1, protein A. Put plainly: HiTrap protein A HP column, pH gradient elution; size exclusion analysis.
Excerpt: The CM samples were filtered through a filter with a pore size of 0.22 μm, and loaded onto a HiTrap protein A HP column (GE Healthcare) equilibrated with D-PBS. […] Eluted fractions were collected and analyzed by size exclusion chromatography analysis to identify their components.

B1: J142-z72/L180-k (antibody, human IgG4 S228P, kappa)
heavy: QVQLVQSGSELKKPGASVKVSCKASGYTFTDNNMDWVRQAPGQGLEWMGDINTRSGGSIYNEEFQDRVTMTIDKSTGTAYMELSSLRSEDTAVYYCARRRSYGYYHDEWGEGTLVTVSSASTKGPSVFPLAPCSRSTSESTAALGCLVKDYFPEPVTVSWNSGALTSGVHTFPAVLQSSGLYSLSSVVTVPSSSLGTKTYTCNVDHKPSNTKVDKRVESKYGPPCPPCPAPEFLGGPSVFLFPPKPKDTLMISRTPEVTCVVVDVSQEDPEVQFNWYVDGVEVHNAKTKPREEQFNSTYRVVSVLTVLHQDWLNGKEYKCKVSNKGLPSSIEKTISKAKGQPREPQVYTLPPSQEEMTKNQVSLTCLVKGFYPSDIAVEWESNGQPENNYKTTPPVLDSDGSFFLYSRLTVDKSRWQEGNVFSCSVMHEALHNRFTQKSLSLSP
light: DIQMTQSPSSLSASVGDRVTITCKASRNIERNLAWYQQKPGQAPELLIYSASRKESGVPDRFSGSRYGTDFTLTISSLQPEDLATYYCQQYYSPPLTFGGGTKVEIKRTVAAPSVFIFPPSDEQLKSGTASVVCLLNNFYPREAKVQWKVDNALQSGNSQESVTEQDSKDSTYSLSSTLTLSKADYEKHKVYACEVTHQGLSSPVTKSFNRGEC
notes: Homomeric by-product in culture medium of Q153-G4d/J142-z72/L180-k; also called homomeric antibody J142-z72; homomeric antibody against FX
Regarding B1, the binding result with protein A [1] was “no binding”.

B2: J300-z107/L210-k (antibody, human IgG4 S228P, kappa)
heavy: QVQLVQSGSELKKPGASVKVSCKASGYTFTDNNMDWVRQAPGQGLEWMGDINTRSGGSIYNEEFQDRVIMTVDKSTDTAYMELSSLRSEDTAVYHCARRKSYGYYLDEWGEGTLVTVSSASTKGPSVFPLAPCSRSTSESTAALGCLVKDYFPEPVTVSWNSGALTSGVHTFPAVLQSSGLYSLSSVVTVPSSSLGTQTYTCNVDHKPSNTKVDKRVESKYGPPCPPCPAPEFLGGPSVFLFPPKPKDTLMISRTPEVTCVVVDVSQEDPEVQFNWYVDGVEVHNAKTKPREEQYNSTYRVVSVLTVLHQDWLNGKEYKCKVSNKGLPSSIEKTISKAKGQPREPQVYTLPPSQEEMTKNQVSLTCLVKGFYPSDIAVEWESNGQPENNYKTTPPVLDSDGSFFLYSKLTVDKSRWQEGNVFSCSVMHEALHNRYTQESLSLSP
light: DIQMTQSPSSLSASVGDRVTITCKASRNIERNLAWYQQKPGQAPELLIYSASRKESGVPDRFSGSRYGTDFTLTISSLQPEDIATYYCQQYSSPPLTFGGGTKVEIKRTVAAPSVFIFPPSDEQLKSGTASVVCLLNNFYPREAKVQWKVDNALQSGNSQESVTEQDSKDSTYSLSSTLTLSKADYEKHKVYACEVTHQGLSSPVTKSFNRGEC
notes: also called homomeric antibody J300-z107; homomeric antibody against FX
On to B2, for which the binding result with protein A [2] was “no binding”.

B3: J142-z73/L180-k (antibody, human IgG4 S228P, kappa)
heavy: QVQLVQSGSELKKPGASVKVSCKASGYTFTDNNMDWVRQAPGQGLEWMGDINTRSGGSIYNEEFQDRVTMTIDKSTGTAYMELSSLRSEDTAVYYCARRRSYGYYHDEWGEGTLVTVSSASTKGPSVFPLAPCSRSTSESTAALGCLVKDYFPEPVTVSWNSGALTSGVHTFPAVLQSSGLYSLSSVVTVPSSSLGTKTYTCNVDHKPSNTKVDKRVESKYGPPCPPCPAPEFLGGPSVFLFPPKPKDTLMISRTPEVTCVVVDVSQEDPEVQFNWYVDGVEVHNAKTKPREEQFNSTYRVVSVLTVLHQDWLNGKEYKCKVSNKGLPSSIEKTISKAKGQPREPQVYTLPPSQEEMTKNQVSLTCLVKGFYPSDIAVEWESNGQPENNYKTTPPVLDSDGSFFLYSRLTVDKSRWQEGNVFSCSVMHEALHNRFTQESLSLSP
light: DIQMTQSPSSLSASVGDRVTITCKASRNIERNLAWYQQKPGQAPELLIYSASRKESGVPDRFSGSRYGTDFTLTISSLQPEDLATYYCQQYYSPPLTFGGGTKVEIKRTVAAPSVFIFPPSDEQLKSGTASVVCLLNNFYPREAKVQWKVDNALQSGNSQESVTEQDSKDSTYSLSSTLTLSKADYEKHKVYACEVTHQGLSSPVTKSFNRGEC
notes: Homomeric by-product in culture medium of Q153-z7/J142-z73/L180-k; also called homomeric antibody J142-z73; homomeric antibody against FX
Turning to B3, the binding result in the assay with protein A [3] is recorded as “no binding”.

B4: homomeric antibody having the H chain of the anti-GPC3 antibody (from no6) (antibody)
heavy: DVVMTQSPLSLPVTPGEPASISCRSSQSLVHSNRNTYLHWYLEKPGQSPQLLIYKVSNRFSGVPDRFSGSGSGTDFTLKISRVEAEDVGVYYCSQNTHVPPTFGQGTKLEIKSSASTKGPSVFPLAPSSKSTSGGTAALGCLVKDYFPEPVTVSWNSGALTSGVHTFPAVLQSSGLYSLSSVVTVPSSSLGTQTYICNVNHKPSNTKVDKKVEPKSCDKTHTCPPCPAPEAAGGPSVFLFPPKPKDTLMISRTPEVTCVVVDVSHEDPEVKFNWYVDGVEVHNAKTKPREEQYASTYRVVSVLTVLHQDWLNGKEYKCKVSNKALPAPIEKTISKAKGQPREPQVYTLPPSRKELTKNQVSLTCLVKGFYPSDIAVEWESNGQPENNYKTTPPVLDSDGSFFLYSKLTVDKSRWQQGNVFSCSVMHEALHNRYTQKSLSLSP
light: QVQLVQSGAEVKKPGASVKVSCKASGYTFTDYEMHWIRKPPGKGLEWIGAINPKTGDTAYSQKFKGRVTLTADKSTSTAYMELSSLTSEDTAVYYCTRFYSYTYWGRGTLVTVSSASVAAPSVFIFPPSDEQLKSGTASVVCLLNNFYPREAKVQWKVDNALQSGNSQESVTEQDSKDSTYSLSSTLTLSKADYEKHKVYACEVTHQGLSSPVTKSFNRGEC
notes: also called no6-Gh-H homomer
In the case of B4, in the assay with protein A [4], the binding result is “no binding”.

B5: homomeric antibody NTA4L-G3 (antibody, human IgG1, kappa, L234A L235A, N297A)
heavy: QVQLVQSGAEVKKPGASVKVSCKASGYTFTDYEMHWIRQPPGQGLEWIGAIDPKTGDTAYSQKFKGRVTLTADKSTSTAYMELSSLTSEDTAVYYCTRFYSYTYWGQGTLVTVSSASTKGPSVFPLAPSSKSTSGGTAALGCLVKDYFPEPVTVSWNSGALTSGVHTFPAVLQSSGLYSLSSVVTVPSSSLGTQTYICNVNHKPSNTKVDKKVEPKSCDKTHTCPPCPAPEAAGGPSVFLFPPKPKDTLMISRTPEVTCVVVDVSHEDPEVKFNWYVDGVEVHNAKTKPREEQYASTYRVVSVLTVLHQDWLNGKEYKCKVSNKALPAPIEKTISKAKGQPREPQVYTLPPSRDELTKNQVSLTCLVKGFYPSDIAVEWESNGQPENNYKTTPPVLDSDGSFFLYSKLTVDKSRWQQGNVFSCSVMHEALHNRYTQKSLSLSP
light: DVVMTQSPLSLPVTPGEPASISCRSSQSLVHSNRNTYLHWYLQKPGQSPQLLIYKVSNRFSGVPDRFSGSGSGTDFTLKISRVEAEDVGVYYCSQNTHVPPTFGQGTKLEIKRTVAAPSVFIFPPSDEQLKSGTASVVCLLNNFYPREAKVQWKVDNALQSGNSQESVTEQDSKDSTYSLSSTLTLSKADYEKHKVYACEVTHQGLSSPVTKSFNRGEC
notes: Homomeric by-product; also called NTL4L-G3
As to B5, in the assay with protein A [5], the binding result is “no binding”.

The values are drawn from US20260217760A1 (Chugai, published 2026).
